Experimental data taken from the Immune Epitope Database (IEDB).
Each block holds one sequence with its values, some of them ahead of it.

Columns and labels:
HLA-A*24:02 = assay: IEDB peptide-MHC binding, purified MHC/competitive/radioactivity; filed as Kd, often an IC50 or EC50 that approximates it; ≥ and ≤ were set here for values at or beyond the usual limits of such assays; details: source organism: Dengue virus 3 Singapore/8120/1995
HLA-A*02:01 [1] = assay: IEDB peptide-MHC binding, purified MHC/direct/fluorescence; filed as Kd, often an IC50 or EC50 that approximates it; ≥ and ≤ were set here for values at or beyond the usual limits of such assays
HLA-A*30:01 = assay: IEDB peptide-MHC binding, purified MHC/competitive/radioactivity; filed as Kd, often an IC50 or EC50 that approximates it; ≥ and ≤ were set here for values at or beyond the usual limits of such assays
HLA-A*30:02 = assay: as above
HLA-A*02:01 [2] = assay: IEDB peptide-MHC binding, purified MHC/competitive/fluorescence; ≥ and ≤ were set here for values at or beyond the usual limits of such assays
HLA-B*07:02 = assay: IEDB peptide-MHC binding, purified MHC/direct/fluorescence; filed as Kd, often an IC50 or EC50 that approximates it; ≥ and ≤ were set here for values at or beyond the usual limits of such assays
HLA-A*03:01 [3] = assay: IEDB peptide-MHC binding, purified MHC/competitive/radioactivity; filed as Kd, often an IC50 or EC50 that approximates it; ≥ and ≤ were set here for values at or beyond the usual limits of such assays
HLA-A*01:01 = assay: IEDB peptide-MHC binding, purified MHC/direct/fluorescence; filed as Kd, often an IC50 or EC50 that approximates it; ≥ and ≤ were set here for values at or beyond the usual limits of such assays
HLA-A*11:01 [4] = assay: IEDB peptide-MHC binding, purified MHC/competitive/radioactivity; filed as Kd, often an IC50 or EC50 that approximates it; ≥ and ≤ were set here for values at or beyond the usual limits of such assays
HLA-A*02:01 [5] = assay: IEDB peptide-MHC binding, purified MHC/competitive/fluorescence; filed as Kd, often an IC50 or EC50 that approximates it; ≥ and ≤ were set here for values at or beyond the usual limits of such assays
HLA-A*69:01 = assay: IEDB peptide-MHC binding, purified MHC/direct/fluorescence; filed as Kd, often an IC50 or EC50 that approximates it; ≥ and ≤ were set here for values at or beyond the usual limits of such assays
HLA-A*31:01 = assay: IEDB peptide-MHC binding, purified MHC/competitive/radioactivity; filed as Kd, often an IC50 or EC50 that approximates it; ≥ and ≤ were set here for values at or beyond the usual limits of such assays
HLA-A*33:01 = assay: as above
HLA-A*68:01 = assay: as above
HLA-A*03:01 [6] = assay: IEDB peptide-MHC binding, purified MHC/direct/fluorescence; filed as Kd, often an IC50 or EC50 that approximates it; ≥ and ≤ were set here for values at or beyond the usual limits of such assays
HLA-A*11:01 [7] = assay: as above
HLA-B*15:01 = assay: as above
HLA-B*40:01 = assay: as above
HLA-A*02:02 = assay: IEDB peptide-MHC binding, purified MHC/competitive/radioactivity; filed as Kd, often an IC50 or EC50 that approximates it; ≥ and ≤ were set here for values at or beyond the usual limits of such assays; details: source organism: Vaccinia virus WR
HLA-A*02:03 = assay: as above; details: source organism: Vaccinia virus WR
HLA-A*02:06 = assay: as above; details: source organism: Vaccinia virus WR
HLA-B*58:01 = assay: IEDB peptide-MHC binding, purified MHC/direct/fluorescence; filed as Kd, often an IC50 or EC50 that approximates it; ≥ and ≤ were set here for values at or beyond the usual limits of such assays; details: source organism: Influenza A virus (A/Yilan/515/03(H3N2))
[8] = source organism: Vaccinia virus WR
[9] = source organism: Dengue virus 2 Jamaica/1409/1983
[10] = source organism: Zaire ebolavirus
[11] = source organism: Dengue virus 1 Brazil/97-11/1997
[12] = source organism: Vaccinia virus Copenhagen
[13] = source organism: Dengue virus 4 Philippines/H241/1956
[14] = source organism: Encephalitozoon cuniculi
[15] = source organism: Listeria monocytogenes
[16] = source organism: Entamoeba histolytica HM-1:IMSS
[17] = source organism: Dengue virus 1 Singapore/S275/1990
[18] = source organism: Sudan ebolavirus
[19] = source organism: Dengue virus 2 Peru/IQT2913/1996
[20] = source organism: Orthohantavirus hantanense
[21] = source organism: Salmonella enterica subsp. enterica serovar Typhi
[22] = source organism: SARS coronavirus Tor2
[23] = source organism: Lymphocytic choriomeningitis virus (strain Armstrong)

Sequence: SWKLEKASF
Kd (HLA-A*24:02): 153 nM

Sequence: FLYGWLFIL
Kd (HLA-A*02:01 [1]; source organism: Francisella tularensis subsp. tularensis): 102 nM

Sequence: MGRFGYVPY
Kd (HLA-A*30:01; [8]): 14.8 nM

Sequence: LHQVFGAIY
Kd (HLA-A*30:02; [9]): 42.7 nM

Sequence: FLIKFLLIH
IC50 (HLA-A*02:01 [2]; [10]): ≥ 296 µM

Kd (HLA-B*07:02; source organism: Homo sapiens): 2.1 µM
Sequence: APRALLLLL

Sequence: VMRSRWSRK
Kd (HLA-A*03:01 [3]; [11]): 4.86 nM
Kd (HLA-A*30:01; [11]): 10.8 nM

Sequence: RTRPRWIPA
Kd (HLA-A*01:01; source organism: Mycobacterium tuberculosis): ≥ 20 µM

Sequence: GSRKSSSIL
Kd (HLA-A*30:01; [12]): 1.58 nM

Sequence: KILAKAIFK
Kd (HLA-A*03:01 [3]; [13]): 11.9 nM
Kd (HLA-A*11:01 [4]; [13]): 79.3 nM
Kd (HLA-A*30:01; [13]): 292 nM

Kd (HLA-A*02:01 [5]; source organism: Tupaia belangeri): 0.5 nM
Sequence: RMPEAAPPV

Kd (HLA-A*02:01 [1]; [14]): 4010 nM
Kd (HLA-A*69:01; [14]): 3.24 µM
Sequence: YLWFKRHVY

Sequence: SLYNLVKSSV
Kd (HLA-A*02:01 [5]; source organism: Variola virus): 3.2 nM

Sequence: QMDGAILVV
Kd (HLA-A*69:01; source organism: Brucella abortus 2308): 3.45 µM

Sequence: KIKLILANK
Kd (HLA-A*03:01 [3]; [8]): 21.6 nM
Kd (HLA-A*11:01 [4]; [8]): 146 nM
Kd (HLA-A*30:01; [8]): 109 nM
Kd (HLA-A*31:01; [8]): 1.46 nM
Kd (HLA-A*33:01; [8]): ≥ 25.6 µM
Kd (HLA-A*68:01; [8]): ≥ 28300 nM

Sequence: GLYEWISEQ
Kd (HLA-A*02:01 [1]; [15]): 177 nM
Kd (HLA-A*69:01; [15]): ≥ 20 µM

Sequence: DLVHFASPL
IC50 (HLA-A*02:01 [2]; source organism: Hepatitis B virus): ≥ 366 µM

Sequence: TTRHRKPTY
Kd (HLA-A*30:01; [13]): 1180 nM
Kd (HLA-A*30:02; [13]): 658 nM

Sequence: KQLEWKWGI
Kd (HLA-A*02:01 [1]; [16]): 0.7 nM
Kd (HLA-A*69:01; [16]): 0.0232 µM

Sequence: HVSISSCNG
Kd (HLA-A*30:01; [8]): 502 nM

Sequence: KAKRGTAQI
Kd (HLA-A*30:01; [17]): 289 nM

Sequence: HIPEGETTL
IC50 (HLA-A*02:01 [2]; [18]): 56.2 µM

Sequence: VQTVRTQVY
Kd (HLA-A*01:01; source organism: SARS-CoV1): ≥ 24.7 µM
Kd (HLA-A*03:01 [6]; source organism: SARS-CoV1): 6.62 µM
Kd (HLA-A*11:01 [7]; source organism: SARS-CoV1): ≥ 44.7 µM
Kd (HLA-B*07:02; source organism: SARS-CoV1): 16.7 µM
Kd (HLA-B*15:01; source organism: SARS-CoV1): 144 nM
Kd (HLA-B*40:01; source organism: SARS-CoV1): ≥ 168000 nM

Sequence: DKKGKVVGLY
Kd (HLA-A*30:02; [19]): 2.56 nM

Sequence: LNIMNKLNI
Kd (HLA-A*02:01 [5]; [12]): 406 nM

Sequence: KMLEASTIY
Kd (HLA-A*03:01 [6]; source organism: Francisella tularensis subsp. holarctica OSU18): 0.19 µM

Sequence: RALKAYFTA
Kd (HLA-A*02:02): 2350 nM
Kd (HLA-A*02:03): 204 nM
Kd (HLA-A*02:06): 13.7 nM
Kd (HLA-A*30:01; [8]): 66.1 nM

Sequence: KVKKRYPEF
Kd (HLA-A*30:01; [8]): 103 nM

Sequence: AVKSEHTGK
Kd (HLA-A*30:01; [17]): 64.3 nM

Sequence: LALLAAFKVR
Kd (HLA-A*30:01; [9]): 74.8 nM

Sequence: MTFGDIPLV
Kd (HLA-A*30:01; [8]): 235 nM

Sequence: NVMAADPPK
Kd (HLA-A*01:01; source organism: Yersinia pestis): ≥ 20 µM

Sequence: TLLMNELGV
Kd (HLA-A*02:01 [5]; source organism: Influenza A virus (A/nt/60/1968(H3N2))): 0.7 nM

Sequence: GNLSPETLV
IC50 (HLA-A*02:01 [2]; source organism: Vaccinia virus): ≥ 106 µM

Sequence: TLNASQYAN
IC50 (HLA-A*02:01 [2]; [12]): ≥ 143 µM

Sequence: INRFTMRHK
Kd (HLA-A*30:01; [19]): 1110 nM

Sequence: KIKAGPRYV
Kd (HLA-A*30:01; [8]): 6.93 nM

Sequence: KSFFSRLNW
Kd (HLA-B*58:01): 139 nM

Sequence: NAHEGQLVI
Kd (HLA-A*69:01; [20]): 3.4 µM
Kd (HLA-B*07:02; [20]): ≥ 25.3 µM

Sequence: SEILPFTVL
Kd (HLA-B*40:01; source organism: Mycobacterium tuberculosis variant bovis): 14.7 nM

Sequence: TQFESLKIY
Kd (HLA-B*15:01; source organism: Influenza A virus (A/Chicken/Nanchang/2-220/2001(H3N6))): 211 nM

Sequence: IDFLLRRWG
IC50 (HLA-A*02:01 [2]; [18]): 26.2 µM

Sequence: RLKRMAISG
Kd (HLA-A*30:01; [11]): 138 nM

Sequence: CLPPPPDGV
IC50 (HLA-A*02:01 [2]; [18]): 1.49 µM

Sequence: FLTCTDRSV
Kd (HLA-A*02:01 [5]; source organism: Human alphaherpesvirus 1 strain 17): 83 nM

Sequence: LEDSHNGKL
Kd (HLA-B*40:01; source organism: Influenza A virus (A/Denver/1957(H1N1))): 73 nM

Kd (HLA-A*69:01; source organism: Haemophilus influenzae): 3.82 µM
Sequence: ATHKAPQPA

Sequence: AAGLPAIFV
Kd (HLA-A*11:01 [7]; [21]): 3.86 µM
Kd (HLA-A*69:01; [21]): 1.07 µM

Sequence: FKAALSSLA
IC50 (HLA-A*02:01 [2]; [10]): ≥ 109 µM

Sequence: KMQRMLLEK
Kd (HLA-B*15:01; source organism: SARS-CoV1): ≥ 40300 nM
Kd (HLA-A*31:01; [22]): 19 nM
Kd (HLA-A*33:01; [22]): 13.7 µM
Kd (HLA-A*68:01; [22]): 1380 nM

Sequence: GRLIWTLDA
IC50 (HLA-A*02:01 [2]; [18]): ≥ 593 µM

Sequence: MRRERAAYV
Kd (HLA-A*30:01; [8]): 21.8 nM

Sequence: KFRPLMIFM
Kd (HLA-A*30:01; [8]): 1.8 nM

Kd (HLA-A*02:01 [5]; source organism: Escherichia coli F11): 0.9 nM
Sequence: CLMTYSHHA

Sequence: NVGRILGYV
Kd (HLA-A*02:01 [1]; [16]): 146 nM
Kd (HLA-A*69:01; [16]): 0.0037 µM

Sequence: KSHTLWSNG
Kd (HLA-A*30:01; [9]): 425 nM

Sequence: EINPFYQDV
Kd (HLA-A*02:01 [1]; [16]): 19500 nM
Kd (HLA-A*69:01; [16]): 0.0076 µM

Sequence: FTNDSIISH
Kd (HLA-A*03:01 [3]; [23]): 303 nM
Kd (HLA-A*30:01; [23]): ≥ 45500 nM
Kd (HLA-A*31:01; [23]): 1990 nM
Kd (HLA-A*33:01; [23]): 0.342 µM
Kd (HLA-A*68:01; [23]): 81.9 nM
